Measured values published in PMC7040160, “Indium-111-labeled CD166-targeted peptide as a potential nuclear imaging agent for detecting colorectal cancer stem-like cells in a xenograft mouse model” (EJNMMI Research, 2020).
Residues, ends and D or L forms follow the SMILES beside them. No end group written: not given here. *: point of attachment. X1 = O=C(O)CN(CCN(CCN(CC(=O)O)CC(=O)O)C(CCCCNC(=O)CCCN1C(=O)CC(*)C1=O)C(=O)O)CC(=O)O

Columns and labels:
CD166^+HCT15 cells [1] = assay: CD166tp-G18C binding assay by flow cytometry; format: cell-based, human; details: Fig. 5a
Protocol: For CD166 detection on the cellular surface, the optimized density (1 × 10^6 cell) of CD166^+HCT15 and CD166^−HCT15 cells were added with 1 mL PBS with 20 μg IgG-FITC and FITC-conjugated CD166 antibody (CD166ab-FITC) for 1 h. For the CD166tp-G18C binding assay, CD166^+HCT15 and CD166^−HCT15 cells were added with 1 mL PBS with 20 μg CD166tp-G18C-FITC and G18C-FITC for 1 h. In competitive group, CD166^+HCT15 cells were pre-treated with CD166tp-G18C (20 μg/mL) for 1 h and then added 20 μg/mL CD166tp-G18C-FITC for 1 h. After PBS washing, cells were collected for flow cytometric analysis using a FACSCalibur Flow Cytometer (BD Bioscience, San Diego, CA, USA).

CD166 protein = target: T1, CD166 protein (Homo sapiens, UniProt Q13740); assay: CD166tp-G18C and CD166 protein interaction assay (immunoprecipitation with CD166 antibody); format: binding; design: endogenous in cells; host or cells: HCT15 cells (sorted CD166+ and CD166- populations); details: Fig. 5c
T1 sequence (Q13740 28-583): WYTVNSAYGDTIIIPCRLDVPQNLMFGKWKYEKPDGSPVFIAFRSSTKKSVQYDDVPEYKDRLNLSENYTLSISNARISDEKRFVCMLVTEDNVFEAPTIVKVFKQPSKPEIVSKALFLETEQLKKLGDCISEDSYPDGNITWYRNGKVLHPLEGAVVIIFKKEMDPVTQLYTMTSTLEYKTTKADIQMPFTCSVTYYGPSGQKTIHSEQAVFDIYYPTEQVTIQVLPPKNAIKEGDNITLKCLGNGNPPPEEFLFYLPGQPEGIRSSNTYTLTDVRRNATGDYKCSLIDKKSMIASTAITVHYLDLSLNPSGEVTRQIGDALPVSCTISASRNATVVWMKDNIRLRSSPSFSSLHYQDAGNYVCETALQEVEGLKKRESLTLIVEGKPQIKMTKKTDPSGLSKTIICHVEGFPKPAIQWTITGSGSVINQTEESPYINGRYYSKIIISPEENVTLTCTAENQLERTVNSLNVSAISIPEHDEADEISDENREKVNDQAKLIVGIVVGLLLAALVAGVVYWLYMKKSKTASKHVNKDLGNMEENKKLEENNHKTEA
Protocol: HCT15 cells (1 × 10^6 cells) were incubated with 20 μg/mL CD166tp-G18C-FITC in the presence or absence of 20 μg/mL CD166tp-G18C at 4 °C for 1 h. After treating immunoblotting lysis buffer with protease inhibitors cocktail (Hycell International, Taipei, Taiwan), the mixture solution was centrifuged at 14,000 rpm (4 °C) for 10 min. The supernatant was treated with or without 2 μg/mL biotinylated-CD166 antibody (Novus Biologicals, Littleton, CO, USA)-conjugated streptavidin agarose beads (Sigma-Aldrich) at 4 °C overnight. In the competitive group, cells were pre-treated with CD166tp-G18C (20 μg/mL) for 1 h at 4 °C. The fluorescence of immunoprecipitates was detected by an ELISA reader (Perkin Elmer).

[2] = test system: CD166^+HCT15 xenograft mice; details: mouse, in vivo
Protocol: The male BALB/c nude mice were subcutaneously inoculating CD166^+HCT15 cells (1 × 10^6 cells) for 2 weeks, and then the ^111In-DTPA, ^111In-DTPA-G18C, ^111In-DTPA-CD166tp-C, and ^111In-DTPA-CD166tp-G18C (740 MBq/kg/mouse) were intravenously injected into mice. The imaging of CD166 in mice at 2, 4, 24, and 48 h were detected by a nano single-photon emission computed tomography/computed tomography (nanoSPECT/CT; Mediso Medical Imaging Systems, Budapest, Hungary). For competitive study, the CD166^+HCT15-derived xenograft mice were pre-treated with CD166tp-G18C (0, 10, and 50 mg/kg) for 6 h. Every mouse then received 740 MBq/kg ^111In-DTPA-CD166tp-G18C via intravenous injection for 24 and 48 h. The competitive CD166 images were observed by a nanoSPECT/CT.

in vivo = details: mouse, iv, 148 MBq/kg/mouse, total radioactivity
Protocol: (§1) CD166^+HCT15 cells were subcutaneously injected into the right hindlimb of mice for establishing CD166-expressed CRC xenograft mouse model. After tumor formation, the ^111In-DTPA, ^111In-DTPA-G18C, ^111In-DTPA-CD166tp-C, and ^111In-DTPA-CD166tp-G18C (148 MBq/kg/mouse) were intravenously injected into mice […]. After 2, 4, 24, and 48 h post-injection, mice were sacrificed and collected blood and organs including the brain, heart, lung, liver, spleen, kidneys, stomach, small intestine, colon, muscle, and tumor. The organ weight was measured. The radioactivity in blood and organs was determined by a 1470 WIZARD gamma counter (PerkinElmer). The percentage of injected dose per gram of tissue (%ID/g) was calculated.

[3] = test system: CD166^+HCT15 xenograft mice; assay: in vivo; details: mouse
Protocol: as §1

CD166^+HCT15 cells [4] = assay: CD166tp-G18C binding assay by immunofluorescence staining; format: cell-based, human; details: fixed, 20 μg/mL, 2 h, Fig. 5b
Protocol: (§2) The CD166tp-G18C binding assay was determined by immunofluorescence staining in both CD166^−HCT15 and CD166^+HCT15 cells. Briefly, cells (1 × 10^4 cells) were seeded in 4-well Millicell EZ slides (Merck Millipore, Germany) with culture medium at 37 °C and 5% CO2 for 16 h. Cells were fixed using 4% paraformaldehyde for 30 min at 37 °C. The fixed-cells were then incubated in the SuperBlock Blocking Buffers (Thermo Fisher Scientific, USA) for 30 min. Cells were incubated with CD166tp-G18C-FITC (20 μg/mL) for 2 h. DAPI was used to stain the cell nuclei at a concentration of 0.2 μg DAPI/mL PBS for 10 min. The images were captured by a fluorescence microscope (BX53, Olympus, Japan) coupled to a CCD camera. Digital images were analyzed by an Image-Pro Plus software (Media Cybernetics, USA).

CD166^−HCT15 cells = assay: as above; format: cell-based, human; details: fixed, 20 μg/mL, 2 h, Fig. 5b
Protocol: as §2

[5] = test system: CD166^+HCT15 and CD166^−HCT15 cells; assay: Cell viability assay (CCK-8), cell resistance; details: 1, 5 and 50 μM, 24 h; absorbance 450 nm; Fig. 3b; n ≥ 5

In the case of “DSEGNSNLCSQSGGGGGGGGGGGGGGGGGGC [CD166tp-G18C, Glycine18-Cysteine-linked CD166-targeted peptide]”, the “competition: effect of pretreatment on binding efficiency of CD166tp-G18C-FITC (flow cytometry)” value (CD166^+HCT15 cells [1]; CD166^+HCT15 cells pre-treated with 20 μg/mL for 1 h, then 20 μg/mL CD166tp-G18C-FITC 1 h) is reported as “markedly decreased the binding efficiency of CD166tp-G18C-FITC” and the “competition: effect of pretreatment on CD166tp-G18C-FITC binding (immunoprecipitation assay)” value (CD166 protein; pre-treated with 20 μg/mL for 1 h at 4 °C) is reported as “could be inhibited”.

With `CC(C)C[C@H](NC(=O)[C@H](CC(N)=O)NC(=O)[C@H](CO)NC(=O)[C@H](CC(N)=O)NC(=O)CNC(=O)[C@H](CCC(=O)O)NC(=O)[C@H](CO)NC(=O)[C@@H](N)CC(=O)O)C(=O)N[C@@H](CS)C(=O)N[C@@H](CO)C(=O)N[C@@H](CCC(N)=O)C(=O)N[C@@H](CO)C(=O)NCC(=O)NCC(=O)NCC(=O)NCC(=O)NCC(=O)NCC(=O)NCC(=O)NCC(=O)NCC(=O)NCC(=O)NCC(=O)NCC(=O)NCC(=O)NCC(=O)NCC(=O)NCC(=O)NCC(=O)NCC(=O)N[C@@H](CSC1CC(=O)N(CCCC(=O)NCCCCC(C(=O)O)N(CCN(CC(=O)O)CC(=O)O)CCN(CC(=O)O)CC(=O)O)C1=O)C(=O)O` (some centres unmarked) [^111In-DTPA-CD166tp-G18C, metal not drawn] (H-DSEGNSNLCSQSGGGGGGGGGGGGGGGGGGC(X1)-OH; N-terminus and C-terminus assumed) the “difference of counts between background and tumor area (nanoSPECT/CT)” value [2] was “about 8 times”, the tissue to tissue ratio at 48 h (in vivo) was 48.9 ± 5.03 and the tissue uptake at 4 h (in vivo) was 10.1 ± 1.26 %ID/g. For the same molecule, the tissue uptake at 24 h (in vivo) was 11.1 ± 2.2 %ID/g, the “ratio of tumor-to-blood (T/B)” value [3] was “remarkably increased” and the “ratio of tumor-to-muscle (T/M)” value [3] was “remarkably increased”. For the same molecule, the tumor-to-blood ratios [3] was 5.94 ± 0.51.

With “CD166tp-G18C-FITC: FITC-labeled CD166tp-G18C (DSEGNSNLCSQSGGGGGGGGGGGGGGGGGGC; cysteine pairing not given here; also: FITC label, site not given here)” the “fluorescence of CD166tp-G18C-FITC on cells (flow cytometry)” value (CD166^+HCT15 cells [1]; CD166^+HCT15 cells, 20 μg/mL, 1 h, n ≥ 3) was “significantly increased”, the “binding via CD166 protein (fluorescence of CD166 antibody immunoprecipitates)” value (CD166 protein; CD166^+HCT15 cells, 20 μg/mL, 1 h, 4 °C, biotinylated-CD166 antibody 2 μg/mL, n ≥ 3) was “could bind” and the “binding ability by immunofluorescence” value (CD166^+HCT15 cells [4]) was “increased”. For the same molecule, the “binding ability by immunofluorescence” value (CD166^−HCT15 cells) was “but not in CD166^−HCT15 cells”.

With `COc1cccc2c1C(=O)c1c(O)c3c(c(O)c1C2=O)C[C@@](O)(C(=O)CO)C[C@@H]3O[C@H]1C[C@H](N)[C@H](O)[C@H](C)O1` [doxorubicin] the “resistance of CD166^+HCT15 cells as compared to CD166^−HCT15 cells (cell viability, CCK-8)” value [5] was “significant resistance”.
